Assay results reported in publication PMC6839450 (ACS chemical biology, 2015).
Bridges are numbered along the chain shown (N, C = ends). Where no end group is shown, it is not given here. [ ]: non-standard residue; d: D form. The star is where a group is joined. FITC = O=C1OC2(c3ccc(O)cc3Oc3cc(O)ccc32)c2ccc(NC(=S)*)cc21; olefin residue = not defined here

Target: full-length BCL-XL (UniProt Q07817-1 1-233)
Experiment: fluorescence polarisation

Sequence of full-length BCL-XL (Q07817 whole entry): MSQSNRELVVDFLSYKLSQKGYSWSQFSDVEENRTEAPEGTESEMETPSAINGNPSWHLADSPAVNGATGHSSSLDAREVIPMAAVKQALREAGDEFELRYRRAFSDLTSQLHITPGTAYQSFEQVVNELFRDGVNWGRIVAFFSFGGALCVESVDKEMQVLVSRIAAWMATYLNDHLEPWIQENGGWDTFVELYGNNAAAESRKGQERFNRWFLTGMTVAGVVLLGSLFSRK

Kd: 68 nM
Binder: {FITC}-EIWIAQELR[olefin residue]IGD[olefin residue]FNAYYA (staple 10-14; not fully specified; reading uncertain) [FITC-BIM SAHBA2]
